Measured values taken from US20140364335A1, “METHOD FOR SCREENING FOR NRF1 REGULATOR” (Mochida Pharmaceutical Co., Ltd., priority 2012, published 2014).
Where a SMILES comes first, the peptide text is derived from it. The star is where a group is joined. Cbz = O=C(OCc1ccccc1)*

Legend:
[1] = test system: full-length mouse Nrf1 and luciferase fusion protein (mNrf1-Luc); assay: Luciferase activity in Hepa1 cell line stably expressing mouse Nrf1-luciferase fusion protein (Nrf1 stabilization assay); format: cell-based; settings: mNrf1-Luc stable Hepa1 cell lines, 10 μM MG-132, 4 hours, vs DMSO
Protocol: (§1) Cloning of mouse Nrf1 cDNA was performed using a method known in the art (Zhang et al., Biochem. J. 399: 373-385. (2006)). An expression vector of full-length mouse Nrf1 and luciferase fusion protein (mNrf1-Luc) was prepared by ligating the sequence, which was amplified by the following primers: 5′-TAATACGACTCACTATAGGG-3′ (SEQ ID NO: 21) and 5′-CTTTATGTTTTTGGCGTCTTCCTTCCTCCGGTCCTTTG-3′ (SEQ ID NO: 22) using mouse Nrf1 cDNA sequence as a template, and the sequence, which was amplified by the following primers: 5′-CAAAGGACCGGAGGAAGGAAGACGCCAAAAACATAAAG-3′ (SEQ ID NO: 23) and 5′-GACTCTAGAATTACACGGCG-3′ (SEQ ID NO: 24) using pGL3-basic vector (Promega) as a template; and cloning the resulting sequence at a KpnI/XbaI site of pcDNA3.1/V5His B plasmid (Invitrogen). […]
(§2) Cells of each cell line were seeded at a density of 5×10^4 cells per well in a 24-well plate, cultured overnight and treated with a solvent control, DMSO or 10 μM MG-132 (Peptide Institute) for 4 hours. Thereafter, the firefly luciferase activity was measured using dual luciferase kit (Promega) and a luminometer (Berthold).

[2] = test system: CNC-bZip domain-deficient mouse Nrf1 and luciferase fusion protein (mNrf1ΔCNC-bZip-Luc); assay: Luciferase activity in Hepa1 cell line stably expressing CNC-bZip domain-deficient mouse Nrf1-luciferase fusion protein; format: cell-based; settings: mNrf1ΔCNC-bZip-Luc stable Hepa1 cell lines, 10 μM MG-132, 4 hours, vs DMSO
Protocol: as §1, §2

[3] = target: T1, Nrf1 CT (G341-K741)/MafG 1-123 heterodimer (Mus musculus, UniProt Q61985;O54790 Q61985:341-741,O54790:1-123); assay: EMSA; slightly weaker than for Nqo1 ARE; room temperature 20 min; probe boundaries in FIG. 6E may differ from the reporter insert; settings: tags: 6xHis on each; E. coli; label: 5' biotin (EMSA)
Protocol: (§3) (A to C) Hepa1 cells were cotransfected with luciferase reporter constructs containing the AREs from the Lipin1 promoter (A), Lipin1 intron (B) or PGC-1β intron (C) together with or without the Nrf1 expression vector. The average values±S.D are shown, n=3. The vertical axis indicates relative luciferase units (RLU). The firefly luciferase activity in the absence of effector plasmids is set to 1. (D) The EMSA analysis was performed with biotin-labeled probes containing the AREs from the Nqo1 promoter, Lipin1 promoter, Lipin1 intron and PGC-1β intron regions. Recombinant MafG and/or Nrf1 or Nrf2 proteins were incubated with the probes, and the protein-DNA complexes and free probes were resolved by electrophoresis. (E) The sequences of the wild-type (W) and mutant (M) oligonucleotides are shown. The mutation sites of the sequences are underlined. (F) Nrf2 and MafG proteins were incubated in combination in the presence or absence of a 200-fold molar excess of unlabeled competitor DNA. The open arrowheads indicate Nrf1/MafG heterodimer complexes, the solid arrowheads indicate Nrf2-MafG heterodimer complexes and the arrows indicate MafG homodimer complexes.
(§4) EMSA was performed in accordance with a method known in the art. […]

[4] = target: MafG 1-123 homodimer (UniProt O54790 O54790:1-123); assay: EMSA; MafG homodimer; MARE-like site; settings: tags: 6xHis; E. coli; chain copies: 2 (stated); label: 5' biotin (EMSA)
Protocol: as §3, §4

[5] = target: T1, Nrf1 CT (G341-K741)/MafG 1-123 …; assay: EMSA; room temperature 20 min; probe boundaries in FIG. 6E may differ from the reporter insert; settings: tags: 6xHis on each; E. coli; label: 5' biotin (EMSA)
Protocol: as §3, §4

T1 sequence (Q61985 341-741, chain 1 of 2): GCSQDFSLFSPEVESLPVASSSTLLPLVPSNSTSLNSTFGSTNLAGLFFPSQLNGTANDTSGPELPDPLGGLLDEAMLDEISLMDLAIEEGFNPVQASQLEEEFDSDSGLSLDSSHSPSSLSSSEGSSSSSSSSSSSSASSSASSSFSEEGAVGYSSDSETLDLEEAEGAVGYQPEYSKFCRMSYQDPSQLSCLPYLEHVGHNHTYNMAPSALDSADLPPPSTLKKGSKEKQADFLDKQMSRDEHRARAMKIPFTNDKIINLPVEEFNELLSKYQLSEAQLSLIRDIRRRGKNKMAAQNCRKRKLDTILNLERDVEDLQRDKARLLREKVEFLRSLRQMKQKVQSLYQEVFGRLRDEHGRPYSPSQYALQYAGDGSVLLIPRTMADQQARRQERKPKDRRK
T1 sequence (O54790 1-123, chain 2 of 2): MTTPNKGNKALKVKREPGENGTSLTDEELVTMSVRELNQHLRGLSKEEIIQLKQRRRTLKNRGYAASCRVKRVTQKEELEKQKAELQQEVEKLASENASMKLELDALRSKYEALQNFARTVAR
MafG 1-123 homodimer, sequence (O54790 1-123, one chain of several): as the sequence (O54790 1-123, chain 2 of 2) above

## CC(C)C[C@@H](C=O)NC(=O)[C@H](CC(C)C)NC(=O)[C@H](CC(C)C)NC(=O)OCc1ccccc1 [MG-132] (Cbz-Leu-Leu-Leu-aldehyde)
[1]
  luciferase activity compared to solvent: drastic increase of luciferase activity
[2]
  luciferase activity compared to solvent: drastic increase of luciferase activity

B1: Lipin1 promoter ARE (dsDNA)
DNA 1: ACGCTCCTGCCGCTGAGCTGTGACTCAGCCAGAGAACTGAG
DNA 2: CTCAGTTCTCTGGCTGAGTCACAGCTCAGCGGCAGGAGCGT
[3]
  binding result: binds

B2: PGC-1beta intron ARE (dsDNA)
DNA 1: TTGATAGTGAGGGGAACATGCTGACTCAGCAGCTCCGAATAA
DNA 2: TTATTCGGAGCTGCTGAGTCAGCATGTTCCCCTCACTATCAA
[4]
  binding result: binds
[5]
  binding result: binds

B3: Lipin1 intron ARE (dsDNA)
DNA 1: CACACCCTGCCCAGAGGCACACTTGCTGAGTCAGCACCCCGG
DNA 2: CCGGGGTGCTGACTCAGCAAGTGTGCCTCTGGGCAGGGTGTG
[4]
  binding result: binds
[5]
  binding result: binds
